Source: US20050214219A1, “24p3 receptors and uses thereof” (priority 2003, published 2005)
Structures can show the parent of a compound that is named as a salt.

Legend:
HIFIα and Nip3 = assay: expression of HIFIα and Nip3 (response to decreased intracellular iron); format: cell-based
Protocol: It is well established that iron chelators can induce apoptosis. […] To examine this possibility, the expression of two genes, HIFIα and Nip3, was analyzed. The two genes are unregulated in response to decreased intracellular iron concentration. As a control, cells were treated with the bacterial siderophore desferrioxamine (DFO), an iron chelator, and analyzed in parallel.

[1] = test system: calcein-loaded HeLa cells; assay: intracellular iron in living cells with iron-sensing dye calcein; format: cell-based; details: for calcein fluorescence (inverse to intracellular iron level): calcein-loaded HeLa cells expressing 24p3 receptor, FIG. 3
Protocol: In this particular example, intracellular iron levels were measured in living cells using the iron-sensing dye calcein. Calcein is a fluorescent, cell permeable dye. Because its fluorescence is quenched upon iron binding, calcein can be used to measure free (also called labile or chelatable) iron in living cells.

24p3-mediated apoptosis = assay: ability of holo-transferrin to block 24p3-mediated apoptosis; format: cell-based
Description: If the basis of 24p3-mediated apoptosis is in fact decreased intracellular iron concentration, then apoptosis should be prevented by iron delivery. To test this prediction, the ability of holo-transferrin to block 24p3-mediated apoptosis was examined.

[2] = test system: HeLa/24p3R-L, HeLa/24p3R-S, or HeLa/X7 cells; assay: intracellular iron monitored by expression of iron-regulated genes ferritin and transferrin receptor 1; format: cell-based
Protocol: Experiments were performed to determine whether 24p3R expression would confer on cells the ability to deliver iron in a 24p3-dependent fashion. In these experiments, as well as those described below, three preparations of 24p3 were used: bacterially derived iron-loaded 24p3 (holo-24p3), bacterially derived iron-lacking 24p3 (apo-24p3), and conditioned medium (CM) from cytokine-deprived FL5.12 cells, which contains 24p3 (FL5.12-24p3). The three preparations of 24p3 were added to HeLa/24p3R-L, HeLa/24p3R-S, or HeLa/X7 cells, and, as a control, iron-containing transferrin (holo-transferrin) was added in parallel samples. To monitor intracellular iron concentration, the expression of two iron-regulated genes, ferritin and transferrin receptor 1 were examined.

[3] = test system: 32D cells or 32D/BCR-ABL^p190 cells; assay: cellular ligand-uptake of fluorescently derivatized 24p3 by fluorescence microscopy; format: cell-based, mouse
Protocol: A cellular ligand-uptake experiment was performed in which 24p3 was fluorescently derivatized, added to 32D cells or 32D/BCR-ABL^p190 cells, and 24p3 internalization analyzed by fluorescence microscopy.

24p3R [4] = assay: Internalization assay of 32P-24p3; format: cell-based, murine
Protocol: HeLa cells constitutively expressing 24p3R were treated with ^32P-24p3 and at various time points cells were washed three times with PBS and incubated for 15 minutes in proteinase K, trypsin, and EDTA solution to remove the extracellular portion of the receptor. The dislodged cells were then collected and counted.
24p3 and other lipocalins are internalized following binding to their cell surface receptor. […] Thus, cells ectopically expressing 24p3R can be used as reagents for examining the function of 24p3 and 24p3R as well as in assays to identify compounds that affect expression or activity of a 24p3R or a 24p3 (e.g., 24p3 or NGAL).

24p3R [5] = assay: ligand-cell binding of 32P-labeled 24p3 to HeLa cells ectopically expressing 24p3R; design: species or system murine
Description: HeLa cells expressed only low levels of 24p3R. To perform functional experiments HeLa cell lines were derived that stably express recombinant N-terminal epitope-tagged derivatives of 24p3R-L and 24p3R-S (HeLa/24p3R-L and HeLa/24p3R-S) and, as a control, the empty expression vector (HeLa/X7). Immunoblot analysis confirmed expression of 24p3R in HeLa/24p3R-L and HeLa/24p3R-S cells.
To determine whether the ectopically expressed 24p3R was able to bind 24p3, a series of ligand-cell binding experiments were performed. […] Binding of ^32P-labeled 24p3 to HeLa/24p3R-L and HeLa/24p3R-S was saturable and blocked by the addition of an excess of unlabeled 24p3. […] Thus, ectopically expressed 24p3R can bind to 24p3.

[6] = test system: HeLa/24p3R-L, HeLa/24p3R-S, or HeLa/X7 cells; assay: colorimetric determination of intracellular free (non-haem) iron concentration; format: cell-based
Protocol: Colorimetric determination of intracellular non-haem iron concentration was measured as described by Leardi et al., (1998, Br. J. Haematol., 102:746-752) with modifications. Briefly, cells were washed twice with ice-cold PBS and then lysed with lysis buffer (1% TRITON™-X100, 10% glycerol. 25 mM HEPES, pH 7.4, in PBS) and incubated with 0.3 N HCl. The proteins in the lysates were precipitated with 10% TCA (trichloroacetic acid) and centrifuged at 1200×g for 15 minutes. The lysates were then mixed with iron chromogen, FERROZINE® (Sigma) in iron buffer reagent (1.5% hydroxylamine HCl in acetate buffer, pH 4.5) and the absorbance was measured spectrophotometrically at 560 nm. The non-heme iron concentration was measured by interpolating the absorbance of each sample using preset iron standards (Sigma) and expressed as mg/dL.
To confirm the results disclosed above, a […] assay that directly measures free iron concentration was employed.

[7] = test system: HeLa/24p3R-L, HeLa/24p3R-S, or HeLa/X7 cells; assay: 24p3-dependent apoptosis by annexin V-FITC staining; format: cell-based; details: for apoptosis (annexin V-FITC staining; confirmed by PARP and caspase 3 cleavage): HeLa/24p3R-L and HeLa/24p3R-S cells
Protocol: To examine the ability of 24p3R to mediate 24p3-dependent apoptosis, different preparations of 24p3 were added to the three HeLa cell lines described above and apoptosis was analyzed by annexin V-FITC staining. […] Apoptosis was confirmed by analyzing proteolytic cleavage of PARP (poly(ADP-ribose)polymerase) and caspase 3.

[8] = HeLa/24p3R-L and HeLa/24p3R-S cells

24p3R, sequence (as listed by the source): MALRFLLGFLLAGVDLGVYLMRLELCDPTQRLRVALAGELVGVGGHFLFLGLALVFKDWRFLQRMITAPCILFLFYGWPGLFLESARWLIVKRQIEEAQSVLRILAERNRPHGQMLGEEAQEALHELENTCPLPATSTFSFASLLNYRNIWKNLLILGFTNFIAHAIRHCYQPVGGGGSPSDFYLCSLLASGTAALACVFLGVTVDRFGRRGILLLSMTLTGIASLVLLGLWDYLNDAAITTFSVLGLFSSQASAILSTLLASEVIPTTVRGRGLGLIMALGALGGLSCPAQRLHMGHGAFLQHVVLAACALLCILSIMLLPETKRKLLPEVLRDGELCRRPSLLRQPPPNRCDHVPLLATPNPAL

For `CC(=O)N(O)CCCCCNC(=O)CCC(=O)N(O)CCCCCNC(=O)CCC(=O)N(O)CCCCCN` [DFO, deferoxamine mesylate, reference compound], the “expression of HIFIα and Nip3” value (HIFIα and Nip3; all three HeLa cell lines) was “induced expression of HIFIα and Nip3”, the “calcein fluorescence (inverse to intracellular iron level)” value (shortened to “calcein fluorescence”) [1] was “large increase in fluorescence emission” and the “intracellular iron levels (calcein)” value ([1]; control HeLa cells (HeLa/X7)) was “altered iron levels”.

“holo-transferrin: iron-containing transferrin, used as control [reference compound]” was tested, and the “effect on apoptosis by 24p3” value (24p3-mediated apoptosis) was “blocked apoptosis by 24p3”, the “effect on apoptosis induced by other agents” value (24p3-mediated apoptosis; apoptosis induced by etoposide or staurosporine) was “had no effect” and the “intracellular iron concentration (ferritin / transferrin receptor 1 expression)” value ([2]; all three HeLa cell lines) was “increased iron concentration”. The levels of ferritin ([2]; all three HeLa cell lines) was “increased levels of ferritin” and the “levels of transferrin receptor 1” value ([2]; all three HeLa cell lines) was “decreased levels of transferrin receptor 1”.

B1: 24p3: recombinant mouse lipocalin 24p3, ligand of 24p3R; used 32P-labeled or fluorescently derivatized (protein)
chain: QDSTQNLIPAPSLLTVPLQPDFRSDQFRGRWYVVGLAGNAVQKKTEGSFTMYSTIYELQENNSYNVTSILVRDQDQGCRYWIRTFVPSSRAGQFTLGNMHRYPQVQSYNVQVATTDYNQFAMVFFRKTSENKQYFKITLYGRTKELSPELKERFTRFAKSLGLKDDNIIFSVPTDQCIDN
With B1 the “internalization of fluorescently labeled 24p3” value ([3]; 32D cells) was “internalized”, the “internalization of fluorescently labeled 24p3” value ([3]; 32D/BCR-ABL^p190 cells) was “not 32D/BCR-ABL^p190 cells” and the “internalization of 32P-labeled 24p3” value (24p3R [4]; [8]) was “internalized by HeLa/24p3R-L and HeLa/24p3R-S cells”. The “internalization of 32P-labeled 24p3” value (24p3R [4]; HeLa/X7 cells) was “not by HeLa/X7 cells”, the “binding of 32P-labeled 24p3 to cells” value (24p3R [5]; [8]) was “bound to HeLa/24p3R-L and HeLa/24p3R-S cells” and the “binding of 32P-labeled 24p3 to cells” value (24p3R [5]; HeLa/X7 cells (empty vector control)) was “not to HeLa/X7 cells”.

B2: apo-24p3: bacterially derived iron-lacking 24p3 (protein)
chain: B1 chain
With B2 the “free iron concentration (colorimetric assay)” value (from here on “free iron concentration”) [6, 8] was “substantially reduced free iron concentration”, the “HIFIα levels and Nip3 transcription” value (HIFIα and Nip3; HeLa/24p3R-S cells) was “increased HIFα levels and Nip3 transcription” and the “calcein fluorescence” value [1] was “large increase in fluorescence emission”. The “intracellular iron concentration (ferritin / transferrin receptor 1 expression)” value ([2]; all three HeLa cell lines) was “did not increase intracellular iron”, the “apoptosis (annexin V-FITC staining; confirmed by PARP and caspase 3 cleavage)” value [7] was “induced apoptosis” and the “apoptosis (annexin V-FITC staining)” value ([7]; HeLa/X7 cells) was “not in HeLa/X7 cells”.

B3: holo-24p3: bacterially derived iron-loaded 24p3 (protein)
chain: B1 chain
B3 was tested, and the “free iron concentration” value [6, 8] was “increased intracellular iron”, the “free iron concentration” value ([6]; HeLa/X7 cells) was “not in HeLa/X7 cells” and the “calcein fluorescence” value [1] was “decrease in fluorescence intensity”. For the same molecule, the “intracellular iron concentration (ferritin / transferrin receptor 1 expression)” value [2, 8] was “increased intracellular iron concentration”, the “intracellular iron concentration (ferritin / transferrin receptor 1 expression)” value ([2]; HeLa/X7 cells) was “not in HeLa/X7 cells” and the “apoptosis (annexin V-FITC staining; confirmed by PARP and caspase 3 cleavage)” value [7] was “failed to induce apoptosis”.
